Results as given in publication PMC11173892.

Target: recombinant human paraoxonase 2 (rPON2) (human) (UniProt Q15165)
Experiment: SEC; Hi-Load 26/600 Superdex 75, renaturing buffer (20 mM Hepes pH 8.5, 0.5 mM CaCl2, 0.1% trehalose), 1.5 mL/min, pooled Ni-NTA fractions of refolded rPON2; calibrated with gel filtration markers; dimer to monomers

- stoichiometry N: 2
Substance: recombinant human paraoxonase 2 (rPON2) (from UniProt Q15165 1-354) (enzyme)
